According to patent publication US20100173362A1 (published 2010):
Where a chain is given by its changes, count along the chain named.

B1: 2B8 (antibody, mouse IgG1, kappa)
heavy: QVQLQQPGAELVKPGTSVKLSCKASGYTFTTYWMHWVNQRPGQGLEWIGEINPTNGHTNYNEKFKSKATLTVDKSSSTAYMQLSSLTSEDSAVYYCARNYVGSIFDYWGQGTTLTVSSAKTTPPSVYPLAPGSAAQTNSMVTLGCLVKGYFPEPVTVTWNSGSLSSGVHTFPAVLQSDLYTLSSSVTVPSSTWPSETVTCNVAHPASSTKVDKKIVPRDCGCKPCICTVPEVSSVFIFPPKPKDVLTITLTPKVTCVVVDISKDDPEVQFSWFVDDVEVHTAQTQPREEQFNSTFRSVSELPIMHQDWLNGKEFKCRVNSAAFPAPIEKTISKTKGRPKAPQVYTIPPPKEQMAKDKVSLTCMITDFFPEDITVEWQWNGQPAENYKNTQPIMDTDGSYFVYSKLNVQKSNWEAGNTFTCSVLHEGLHNHHTEKSLSHSPGK
light: NIVMTQSPKSMSMSVGERVTLSCKASENVVSYVSWYQQKPAQSPKLLIYGASNRNTGVPDRFTGSGSATDFTLTISSVRAEDLADYHCGQSYNYPYTFGGGTRLEIKRADAAPTVSIFPPSSEQLTSGGASVVCFLNNFYPKDINVKWKIDGSERQNGVLNSWTDQDSKDSTYSMSSTLTLTKDEYERHNSYTCEATHKTSTSPIVKSFNRNEC
notes: also called murine 2B8; mouse 2B8
B2: HE2B8-1 (antibody, human IgG1, kappa, V domains shown)
VH: QVQLVQPGAEVVKPGTSVKLSCKASGYTFTTYWMHWVNQAPGQGLEWIGEINPTNGHTNYNEKFKGKATLTVDKSTSTAYMELSSLRSEDTAVYYCARNYVGSIFDYWGQGTLLTVSS
VL: DIVMTQSPDSMAMSVGERVTLNCKASENVVSYVSWYQQKPGQSPKLLIYGASNRNTGVPDRFSGSGSATDFTLTISSVQAEDVADYHCGQSYNYPYTFGQGTKLEIKR
B3: HE2B8-2 (antibody, human IgG1, kappa, V domains shown)
VH: B2 VH
VL: B2 VL with M11L, V15L, N55E, T56S
B4: HE2B8-3 (antibody, human IgG1, kappa, V domains shown)
VH: B2 VH with V12K, N38R, E62Q, K65Q, K67R
VL: B2 VL
B5: HE2B8-4 (antibody, human IgG1, kappa, V domains shown)
VH: B2 VH with V12K, N38R, E62Q, K65Q, K67R
VL: B2 VL with M11L, V15L, N55E, T56S
B6: sh2B8-9 (G1m(3)) (antibody, human IgG1, kappa)
heavy: not shown
light: DIQMTQSPSSLSASVGDRVTITCKASENVVSYVSWYQQKPGKAPKLLIYGASNRNTGVPSRFSGSGSGTDFTLTISSLQPEDFATYYCGQSYNYPYTFGQGTKLEIKRTVAAPSVFIFPPSDEQLKSGTASVVCLLNNFYPREAKVQWKVDNALQSGNSQESVTEQDSKDSTYSLSSTLTLSKADYEKHKVYACEVTHQGLSSPVTKSFNRGEC
notes: superhumanized 2B8, human IgG1 G1m(3) allotype (allele 2), kappa Km(3) (allele 2), made in 293T cells

Columns and labels:
[1] = target: T1, recombinant human HGF (R&D Systems, Catalog No. 294-HGN-025) (human, UniProt P14210 32-728); test: cell-based or functional assay
T1 sequence (P14210 32-728 limits assumed): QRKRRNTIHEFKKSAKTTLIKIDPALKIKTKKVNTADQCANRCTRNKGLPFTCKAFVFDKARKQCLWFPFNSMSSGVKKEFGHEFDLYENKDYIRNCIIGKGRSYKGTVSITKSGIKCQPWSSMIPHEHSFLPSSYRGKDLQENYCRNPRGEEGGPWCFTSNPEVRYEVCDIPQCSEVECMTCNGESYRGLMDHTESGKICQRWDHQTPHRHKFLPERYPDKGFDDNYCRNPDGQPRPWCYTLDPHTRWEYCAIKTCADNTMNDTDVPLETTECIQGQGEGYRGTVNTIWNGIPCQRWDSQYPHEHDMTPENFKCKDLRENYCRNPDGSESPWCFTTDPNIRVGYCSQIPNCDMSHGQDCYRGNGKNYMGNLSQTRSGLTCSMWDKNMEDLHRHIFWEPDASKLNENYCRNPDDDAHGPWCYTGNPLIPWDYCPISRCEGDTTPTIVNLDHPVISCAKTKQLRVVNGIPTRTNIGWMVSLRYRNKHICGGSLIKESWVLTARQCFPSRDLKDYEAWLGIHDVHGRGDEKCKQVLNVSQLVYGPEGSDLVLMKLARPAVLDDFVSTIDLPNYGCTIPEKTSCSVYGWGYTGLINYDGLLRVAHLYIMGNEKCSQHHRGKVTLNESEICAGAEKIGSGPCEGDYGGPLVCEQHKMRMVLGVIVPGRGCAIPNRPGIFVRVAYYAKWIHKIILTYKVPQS

[2] = target: T1, recombinant human HGF (R&D Systems, …); test: SPR (BIAcore), KD at 25 C against KD at 37 C; upper end fits 2B8 in Table 19
Description: (§1) The antibodies were captured in an individual flow cell at a flow rate of 10 μL/min. Injection time was variable for each antibody to yield approximately 20 RU of antibody captured for each cycle. […] The dissociation phase was monitored for 15 or 90 minutes, depending on concentration. The surface of mouse anti-human immunoglobulins sensor chips was then regenerated with 10 mM Glycine-HCl, pH 2.2 (BIAcore, Catalog No. BR-1003-54) injected for 3 minutes at a flow rate of 60 μL/min before another cycle was initiated. The surface of rabbit anti-mouse immunoglobulins sensor chips was regenerated with 10 mM Glycine-HCl, pH 1.7 (BIAcore, Catalog No. BR-1003-54) injected for 3 minutes at a flow rate of 60 μL/min before another cycle was initiated.

[3] = target: T1, recombinant human HGF (R&D Systems, …); test: SPR (BIAcore), KD at 25 C against KD at 37 C; lower end fits sh2B8-9 in Table 19
Description: as §1

| Binder | HGF-stimulated c-Met phosphorylation in PC-3 cells, Average of Two Trials [1] [nM] | fold smaller KD at 37° C. than at 25° C. [2] [fold] | fold smaller KD at 37° C. than at 25° C. [3] [fold] |
| --- | --- | --- | --- |
| B1 | 0.91 | 1.4 to 3 |  |
| B2 | 0.8 |  |  |
| B3 | 0.88 |  |  |
| B4 | 0.79 |  |  |
| B5 | 0.75 |  |  |
| B6 | 0.93 |  | 1.4 to 3 |
